# Measurements from patent US20140193378A1 (UNIVERSITY OF MIAMI, published 2014).
# Non-standard residues stand in square brackets, D forms with d. No end group written: not given here. *: point of attachment. Desaminotyrosyl = O=C(CCc1ccc(O)cc1)*; NMeY = CN[C@@H](Cc1ccc(O)cc1)C(=O)O; Agmatine = N=C(N)NCCCCN*; Nle = CCCC[C@H](N)C(=O)O; Orn = NCCC[C@H](N)C(=O)O; dAbu = CC[C@@H](N)C(=O)O; Abu = CC[C@H](N)C(=O)O; Aoc = NCCCCCCCC(=O)O; GABA = NCCCC(=O)O
# B1: P-21301 [N-Me-Tyr^1, Orn^12, Abu^15, Orn^21, Nle^27, Asp^28, Amc^30]hGHRH(1-30)NH2 (peptide)
# chain: [NMeY]ADAIFTNSYR[Orn]VL[Abu]QLSAR[Orn]LLQDI[Nle]DR[Aoc]-NH2
# modifications: N-terminus assumed
# SMILES: CCCC[C@H](NC(=O)[C@@H](NC(=O)[C@H](CC(=O)O)NC(=O)[C@H](CCC(N)=O)NC(=O)[C@H](CC(C)C)NC(=O)[C@H](CC(C)C)NC(=O)[C@H](CCCN)NC(=O)[C@H](CCCNC(=N)N)NC(=O)[C@H](C)NC(=O)[C@H](CO)NC(=O)[C@H](CC(C)C)NC(=O)[C@H](CCC(N)=O)NC(=O)[C@H](CC)NC(=O)[C@H](CC(C)C)NC(=O)[C@@H](NC(=O)[C@H](CCCN)NC(=O)[C@H](CCCNC(=N)N)NC(=O)[C@H](Cc1ccc(O)cc1)NC(=O)[C@H](CO)NC(=O)[C@H](CC(N)=O)NC(=O)[C@@H](NC(=O)[C@H](Cc1ccccc1)NC(=O)[C@@H](NC(=O)[C@H](C)NC(=O)[C@H](CC(=O)O)NC(=O)[C@H](C)NC(=O)[C@H](Cc1ccc(O)cc1)NC)[C@@H](C)CC)[C@@H](C)O)C(C)C)[C@@H](C)CC)C(=O)N[C@@H](CC(=O)O)C(=O)N[C@@H](CCCNC(=N)N)C(=O)NCCCCCCCC(N)=O
# B2: P-25503 [N-Me-Tyr^1, Abu^2, Orn^12, Abu^15, Orn^21, Nle^27, Gab^30]hGHRH(1-30)NH2 (peptide)
# chain: [NMeY][Abu]DAIFTNSYR[Orn]VL[Abu]QLSAR[Orn]LLQDI[Nle]SR[GABA]-NH2
# modifications: N-terminus assumed
# SMILES: CCCC[C@H](NC(=O)[C@@H](NC(=O)[C@H](CC(=O)O)NC(=O)[C@H](CCC(N)=O)NC(=O)[C@H](CC(C)C)NC(=O)[C@H](CC(C)C)NC(=O)[C@H](CCCN)NC(=O)[C@H](CCCNC(=N)N)NC(=O)[C@H](C)NC(=O)[C@H](CO)NC(=O)[C@H](CC(C)C)NC(=O)[C@H](CCC(N)=O)NC(=O)[C@H](CC)NC(=O)[C@H](CC(C)C)NC(=O)[C@@H](NC(=O)[C@H](CCCN)NC(=O)[C@H](CCCNC(=N)N)NC(=O)[C@H](Cc1ccc(O)cc1)NC(=O)[C@H](CO)NC(=O)[C@H](CC(N)=O)NC(=O)[C@@H](NC(=O)[C@H](Cc1ccccc1)NC(=O)[C@@H](NC(=O)[C@H](C)NC(=O)[C@H](CC(=O)O)NC(=O)[C@H](CC)NC(=O)[C@H](Cc1ccc(O)cc1)NC)[C@@H](C)CC)[C@@H](C)O)C(C)C)[C@@H](C)CC)C(=O)N[C@@H](CO)C(=O)N[C@@H](CCCNC(=N)N)C(=O)NCCCC(N)=O
# B3: P-29703 [N-Me-Tyr^1, Gln^8, Orn^12, Abu^15, Orn^21, Nle^27, Gln-Gab^30]hGHRH(1-30)NH2 (peptide)
# chain: [NMeY]ADAIFTQSYR[Orn]VL[Abu]QLSAR[Orn]LLQDI[Nle]SRQ[GABA]-NH2
# modifications: N-terminus assumed
# SMILES: CCCC[C@H](NC(=O)[C@@H](NC(=O)[C@H](CC(=O)O)NC(=O)[C@H](CCC(N)=O)NC(=O)[C@H](CC(C)C)NC(=O)[C@H](CC(C)C)NC(=O)[C@H](CCCN)NC(=O)[C@H](CCCNC(=N)N)NC(=O)[C@H](C)NC(=O)[C@H](CO)NC(=O)[C@H](CC(C)C)NC(=O)[C@H](CCC(N)=O)NC(=O)[C@H](CC)NC(=O)[C@H](CC(C)C)NC(=O)[C@@H](NC(=O)[C@H](CCCN)NC(=O)[C@H](CCCNC(=N)N)NC(=O)[C@H](Cc1ccc(O)cc1)NC(=O)[C@H](CO)NC(=O)[C@H](CCC(N)=O)NC(=O)[C@@H](NC(=O)[C@H](Cc1ccccc1)NC(=O)[C@@H](NC(=O)[C@H](C)NC(=O)[C@H](CC(=O)O)NC(=O)[C@H](C)NC(=O)[C@H](Cc1ccc(O)cc1)NC)[C@@H](C)CC)[C@@H](C)O)C(C)C)[C@@H](C)CC)C(=O)N[C@@H](CO)C(=O)N[C@@H](CCCNC(=N)N)C(=O)N[C@@H](CCC(N)=O)C(=O)NCCCC(N)=O
# B4: P-25504 [Dat^1, D-Abu^2, Orn^12, Abu^15, Orn^21, Nle^27, Gab^30]hGHRH(1-30)NH2 (peptide)
# peptide: [Desaminotyrosyl][dAbu]DAIFTNSYR[Orn]VL[Abu]QLSAR[Orn]LLQDI[Nle]SR[GABA]-NH2
# SMILES: CCCC[C@H](NC(=O)[C@@H](NC(=O)[C@H](CC(=O)O)NC(=O)[C@H](CCC(N)=O)NC(=O)[C@H](CC(C)C)NC(=O)[C@H](CC(C)C)NC(=O)[C@H](CCCN)NC(=O)[C@H](CCCNC(=N)N)NC(=O)[C@H](C)NC(=O)[C@H](CO)NC(=O)[C@H](CC(C)C)NC(=O)[C@H](CCC(N)=O)NC(=O)[C@H](CC)NC(=O)[C@H](CC(C)C)NC(=O)[C@@H](NC(=O)[C@H](CCCN)NC(=O)[C@H](CCCNC(=N)N)NC(=O)[C@H](Cc1ccc(O)cc1)NC(=O)[C@H](CO)NC(=O)[C@H](CC(N)=O)NC(=O)[C@@H](NC(=O)[C@H](Cc1ccccc1)NC(=O)[C@@H](NC(=O)[C@H](C)NC(=O)[C@H](CC(=O)O)NC(=O)[C@@H](CC)NC(=O)CCc1ccc(O)cc1)[C@@H](C)CC)[C@@H](C)O)C(C)C)[C@@H](C)CC)C(=O)N[C@@H](CO)C(=O)N[C@@H](CCCNC(=N)N)C(=O)NCCCC(N)=O
# notes: also called Peptide 25504
# B5: P-20351 [Ac-N-Me-Tyr^1, D-Ala^2, Gln^8, Orn^12, Abu^15, Orn^21, Nle^27, Asp^28, Agm^29]hGHRH(1-29)NH2 (peptide)
# peptide: Ac-[NMeY][dA]DAIFTQSYR[Orn]VL[Abu]QLSAR[Orn]LLQDI[Nle]D[Agmatine]
# SMILES: CCCC[C@H](NC(=O)[C@@H](NC(=O)[C@H](CC(=O)O)NC(=O)[C@H](CCC(N)=O)NC(=O)[C@H](CC(C)C)NC(=O)[C@H](CC(C)C)NC(=O)[C@H](CCCN)NC(=O)[C@H](CCCNC(=N)N)NC(=O)[C@H](C)NC(=O)[C@H](CO)NC(=O)[C@H](CC(C)C)NC(=O)[C@H](CCC(N)=O)NC(=O)[C@H](CC)NC(=O)[C@H](CC(C)C)NC(=O)[C@@H](NC(=O)[C@H](CCCN)NC(=O)[C@H](CCCNC(=N)N)NC(=O)[C@H](Cc1ccc(O)cc1)NC(=O)[C@H](CO)NC(=O)[C@H](CCC(N)=O)NC(=O)[C@@H](NC(=O)[C@H](Cc1ccccc1)NC(=O)[C@@H](NC(=O)[C@H](C)NC(=O)[C@H](CC(=O)O)NC(=O)[C@@H](C)NC(=O)[C@H](Cc1ccc(O)cc1)N(C)C(C)=O)[C@@H](C)CC)[C@@H](C)O)C(C)C)[C@@H](C)CC)C(=O)N[C@@H](CC(=O)O)C(=O)NCCCCNC(=N)N
# notes: also called Peptide 20351
# B6: P-21300 [Dat^1, D-Ala^2, Orn^12, Abu^15, Orn^21, Nle^27, Asp^28, Amc^30]hGHRH(1-30)NH2 (peptide)
# peptide: [Desaminotyrosyl][dA]DAIFTNSYR[Orn]VL[Abu]QLSAR[Orn]LLQDI[Nle]DR[Aoc]-NH2
# SMILES: CCCC[C@H](NC(=O)[C@@H](NC(=O)[C@H](CC(=O)O)NC(=O)[C@H](CCC(N)=O)NC(=O)[C@H](CC(C)C)NC(=O)[C@H](CC(C)C)NC(=O)[C@H](CCCN)NC(=O)[C@H](CCCNC(=N)N)NC(=O)[C@H](C)NC(=O)[C@H](CO)NC(=O)[C@H](CC(C)C)NC(=O)[C@H](CCC(N)=O)NC(=O)[C@H](CC)NC(=O)[C@H](CC(C)C)NC(=O)[C@@H](NC(=O)[C@H](CCCN)NC(=O)[C@H](CCCNC(=N)N)NC(=O)[C@H](Cc1ccc(O)cc1)NC(=O)[C@H](CO)NC(=O)[C@H](CC(N)=O)NC(=O)[C@@H](NC(=O)[C@H](Cc1ccccc1)NC(=O)[C@@H](NC(=O)[C@H](C)NC(=O)[C@H](CC(=O)O)NC(=O)[C@@H](C)NC(=O)CCc1ccc(O)cc1)[C@@H](C)CC)[C@@H](C)O)C(C)C)[C@@H](C)CC)C(=O)N[C@@H](CC(=O)O)C(=O)N[C@@H](CCCNC(=N)N)C(=O)NCCCCCCCC(N)=O
# notes: also called Peptide 21300
# B7: P-21303 [N-Me-Tyr^1, D-Ala^2, Orn^12, Abu^15, Orn^21, Nle^27, Asp^28, Amc^30]hGHRH(1-30)NH2 (peptide)
# peptide: [NMeY][dA]DAIFTNSYR[Orn]VL[Abu]QLSAR[Orn]LLQDI[Nle]DR[Aoc]-NH2
# modifications: N-terminus assumed
# SMILES: CCCC[C@H](NC(=O)[C@@H](NC(=O)[C@H](CC(=O)O)NC(=O)[C@H](CCC(N)=O)NC(=O)[C@H](CC(C)C)NC(=O)[C@H](CC(C)C)NC(=O)[C@H](CCCN)NC(=O)[C@H](CCCNC(=N)N)NC(=O)[C@H](C)NC(=O)[C@H](CO)NC(=O)[C@H](CC(C)C)NC(=O)[C@H](CCC(N)=O)NC(=O)[C@H](CC)NC(=O)[C@H](CC(C)C)NC(=O)[C@@H](NC(=O)[C@H](CCCN)NC(=O)[C@H](CCCNC(=N)N)NC(=O)[C@H](Cc1ccc(O)cc1)NC(=O)[C@H](CO)NC(=O)[C@H](CC(N)=O)NC(=O)[C@@H](NC(=O)[C@H](Cc1ccccc1)NC(=O)[C@@H](NC(=O)[C@H](C)NC(=O)[C@H](CC(=O)O)NC(=O)[C@@H](C)NC(=O)[C@H](Cc1ccc(O)cc1)NC)[C@@H](C)CC)[C@@H](C)O)C(C)C)[C@@H](C)CC)C(=O)N[C@@H](CC(=O)O)C(=O)N[C@@H](CCCNC(=N)N)C(=O)NCCCCCCCC(N)=O
# notes: also called Peptide 21303
# Biological target: T1, human GHRH receptor (human pituitary membrane homogenates) (human), Q02643
# T1 chain: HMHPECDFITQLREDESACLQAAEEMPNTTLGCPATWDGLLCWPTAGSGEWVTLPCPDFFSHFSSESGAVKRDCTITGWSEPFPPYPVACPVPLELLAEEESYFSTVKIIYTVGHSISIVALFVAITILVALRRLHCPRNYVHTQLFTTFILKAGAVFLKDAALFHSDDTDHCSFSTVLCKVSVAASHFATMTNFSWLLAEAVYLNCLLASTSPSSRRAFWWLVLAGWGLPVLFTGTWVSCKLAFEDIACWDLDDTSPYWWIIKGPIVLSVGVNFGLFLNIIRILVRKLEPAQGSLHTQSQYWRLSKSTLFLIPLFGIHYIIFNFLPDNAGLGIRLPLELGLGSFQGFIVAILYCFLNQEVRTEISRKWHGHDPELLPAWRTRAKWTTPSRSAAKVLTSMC
# Assay: radioligand competition vs 125I-JV-1-42 (0.2 nM), human pituitary membranes
Binder,IC50 [nM],Relative affinity (Binding potency) vs JI-38 [fold]
B1,2.99,1.45
B2,1.18,3.67
"[NMeY]ADAIFTQSYR[Orn]VL[Abu]QLSAR[Orn]LLQDI[Nle]SR-NHMe [P-27405 [N-Me-Tyr^1, Gln^8, Orn^12, Abu^15, Orn^21, Nle^27]hGHRH(1-29)NH-CH3]",1.08,4.03
"[NMeY]ADAIFTNSYR[Orn]VL[Abu]QLSAR[Orn]LLQDI[Nle]SR[GABA]-NHMe [P-27415 [N-Me-Tyr^1, Orn^12, Abu^15, Orn^21, Nle^27, Gab^30]hGHRH(1-30)NH-CH3]",3.02,1.44
B3,,3.57

# Biological target: T2, human GHRH receptor (human pituitary membrane homogenates) (human, UniProt Q02643 23-423)
# T2 construct: whole, on cells; Native receptor in human pituitary membrane homogenates, not on intact cells; also called hGHRH receptor
# T2 sequence (looked up): T1 chain
# Assay: as above
# From the text: Normal human pituitaries were purchased from the National Hormone and Peptide Program (A. F. Parlow, Los Angeles, County Harbor-UCLA Medical Center, Torrance, Calif.).
row,Binder,Relative affinity (Binding potency) vs JI-38 [fold]
1,B4,3.02
2,"[NMeY][dA]DAIFTQSYR[Orn]VL[Abu]QLSAR[Orn]LLQDI[Nle]D[Agmatine] (also called Peptide 20361) [P-20361 [N-Me-Tyr^1, D-Ala^2, Gln^8, Orn^12, Abu^15, Orn^21, Nle^27, Asp^28, Agm^29]hGHRH(1-29)NH2]",5.3
3,B5,1.26
4,B6,1.2
5,B7,2.32
